The text below walks through data of PMC8878332.

This assay addresses Human plasminogen (human). Kind of assay: ELISA; plasminogen immobilised on plate wells (1 ug in 100 uL PBS), blocked with 1% gelatin; AdcA 0-1 uM in PBS, 1.5 h at 37 C; bound AdcA detected with rabbit anti-AdcA serum; apparent KD from the fit to total binding saturation (GraphPad Prism); MntC run as control; EACA (0.1-10 mM) or NaCl (25-800 mM) added in further panels.

For “Staphylococcus aureus zinc transport protein AdcA, recombinant full-length protein (natural protein)”, the Kd was determined as 0.0451 µM.
